According to the RNAGym collection of RNA variant scans (doi:10.7554/elife.80360):

B1: CPEB3 Ribozyme (parent)
chain: GGGGGCCACAGCAGAAGCGUUCACGUCGCGGCCCCUGUCAGAUUCUGGUGAAUCUGCGAAUUCUGCUGU

Variants of: B1
Test: self-cleavage, relative activity (ratio to wild type); higher = more cleavage; co-transcriptional
Variant GGGGGCCACAGCAGAAGCGUUCACGCCGCGGCCCCUGUCAGAUUCUGGUGAAUCUGAGAAUUCUGCUGU [U26C C57A] has a self-cleavage of 0.209.
GGGGGCCACAGCAGAAGCGUUCACGCCGCGGCCCCUGUCAGAUUCUGGUGAAUCUGGGAAUUCUGCUGU [U26C C57G] showed a self-cleavage of 0.268.
For GGGGGCCACAGCAGAAGCGUUCACGCCGCAGCCCCUGUCAGAUUCUGGUGAAUCUGCGAAUUCUGCUGU [U26C G30A], the self-cleavage was 0.749.
Work on GGGGGCCACAGCAGAAGCGUUCACGCCGCUGCCCCUGUCAGAUUCUGGUGAAUCUGCGAAUUCUGCUGU [U26C G30U] yielded a self-cleavage of 0.304.
In the case of GGGGGCCACAGCAGAAGCGUUCACGCCACGGCCCCUGUCAGAUUCUGGUGAAUCUGCGAAUUCUGCUGU [U26C G28A], the self-cleavage is reported as 0.108.
With GGGGGCCACAGCAGAAGCGUUCACGCCUCGGCCCCUGUCAGAUUCUGGUGAAUCUGCGAAUUCUGCUGU [U26C G28U] the self-cleavage was 0.139.
For GGGGGCCACAGCAGAAGCGUUCACGCCGCGGCCCUUGUCAGAUUCUGGUGAAUCUGCGAAUUCUGCUGU [U26C C35U], the self-cleavage was 0.964.
In the case of GGGGGCCACAGCAGAAGCGUUCACGCCGCGGCCCGUGUCAGAUUCUGGUGAAUCUGCGAAUUCUGCUGU [U26C C35G], the self-cleavage is reported as 0.375.
With GGGGGCCACAGCAGAAGCGUUCACGCCGCGGCCCCUGUCAGAUUCUGGUGAAUCUGCGAAGUCUGCUGU [U26C U61G] the self-cleavage was 0.693.
Work on GGGGGCCACAGCAGAAGCGUUCACGCCGCGGCCCCUGUCAGAUUCUGGUGAAUCUGCGAAAUCUGCUGU [U26C U61A] yielded a self-cleavage of 0.874.
GGGGGCCACAGCAGAAGCGUUCACGCCGCGGCCCCUGUCAGAUUCUGGUGAAUCUGCGAACUCUGCUGU [U26C U61C] gave a self-cleavage of 0.617.
GGGGGCCACAGCAGAAGCGUUCACGCCGCGGCCCCUGUCAGAUUCUGGUCAAUCUGCGAAUUCUGCUGU [U26C G50C] showed a self-cleavage of 1.
Work on GGGGGCCACAGCAGAAGCGUUCACGCCGCGGCCCCUGUCAGAUUCUGGUUAAUCUGCGAAUUCUGCUGU [U26C G50U] yielded a self-cleavage of 0.956.
GGGGGCCACAGCAGAAGCGUUCACGCCGCGGCCCCUGGCAGAUUCUGGUGAAUCUGCGAAUUCUGCUGU [U26C U38G] gave a self-cleavage of 0.188.
For GGGGGCCACAGCAGAAGCGUUCACGCCGCGGCCCCUGCCAGAUUCUGGUGAAUCUGCGAAUUCUGCUGU [U26C U38C], the self-cleavage was 0.925.
GGGGGCCACAGCAGAAGCGUUCACGCCGCGGCCCCUGACAGAUUCUGGUGAAUCUGCGAAUUCUGCUGU [U26C U38A] showed a self-cleavage of 0.837.
Work on GGGGGCCACAGCAGAAGCGUUCACGCCGCGGCCCCUGUCAGAUACUGGUGAAUCUGCGAAUUCUGCUGU [U26C U44A] yielded a self-cleavage of 0.953.
GGGGGCCACAGCAGAAGCGUUCACGCCGCGGCCCCUGUCAGAUCCUGGUGAAUCUGCGAAUUCUGCUGU [U26C U44C] showed a self-cleavage of 0.941.
In the case of GGGGGCCACAGCAGAAGCGUUCACGCCGCGGCCCCUGUCAGAUGCUGGUGAAUCUGCGAAUUCUGCUGU [U26C U44G], the self-cleavage is reported as 1.02.
Variant GGGGGCCACAGCAGAAGCGUUCACGCCGCGGCCCCUGUCAGAUUCUGGUGAAUCUGCGAAUUCGGCUGU [U26C U64G] has a self-cleavage of 0.752.
GGGGGCCACAGCAGAAGCGUUCACGCCGCGGCCCCUGUCAGAUUCUGGUGAAUCUGCGAAUUCCGCUGU [U26C U64C] showed a self-cleavage of 0.688.
Variant GGGGGCCACAGCAGAAGCGUUCACGCCGCGGCCCCUGUCAGAUUCUGGUGAAUCUGCGAAUUCAGCUGU [U26C U64A] has a self-cleavage of 0.768.
In the case of GGGGGCCACAGCAGAAGCGUUCACGCCGCGGCCCCUGUCAGAGUCUGGUGAAUCUGCGAAUUCUGCUGU [U26C U43G], the self-cleavage is reported as 0.735.
For GGGGGCCACAGCAGAAGCGUUCACGCCGCGGCCCCUGUCAGAUUCUGGUGAAUCAGCGAAUUCUGCUGU [U26C U55A], the self-cleavage was 0.821.
GGGGGCCACAGCAGAAGCGUUCACGCCGCGGCCCCUGUCAGAUUCUGGUGAAUCCGCGAAUUCUGCUGU [U26C U55C] gave a self-cleavage of 0.833.
GGGGGCCACAGCAGAAGCGUUCACGCCGUGGCCCCUGUCAGAUUCUGGUGAAUCUGCGAAUUCUGCUGU [U26C C29U] showed a self-cleavage of 0.135.
Work on GGGGGCCACAGCAGAAGCGUUCACGCCGCGGCCCCUGUCAGAUUCUGGUGAAUCUGCAAAUUCUGCUGU [U26C G58A] yielded a self-cleavage of 0.937.
GGGGGCCACAGCAGAAGCGUUCACGCCGCGGCCCCUGUCAGAUUCUGGUGAAUCUGCUAAUUCUGCUGU [U26C G58U] showed a self-cleavage of 0.993.
GGGGGCCACAGCAGAAGCGUUCACGCCGCGGCCCCUGUCAGAUUCUGGUGAAUCUGCCAAUUCUGCUGU [U26C G58C] gave a self-cleavage of 0.963.
Variant GGGGGCCACAGCAGAAGCGUUCACGCCGCGGCCCCUGUCAGAUUCUGGUGAAUCUUCGAAUUCUGCUGU [U26C G56U] has a self-cleavage of 0.854.
Work on GGGGGCCACAGCAGAAGCGUUCACGCCGCGGCCCCUGUCAGAUUCUGGUGAAUCUCCGAAUUCUGCUGU [U26C G56C] yielded a self-cleavage of 0.634.
With GGGGGCCACAGCAGAAGCGUUCACGCCGCGGCCCCUGUCAGAUUCAGGUGAAUCUGCGAAUUCUGCUGU [U26C U46A] the self-cleavage was 1.02.
GGGGGCCACAGCAGAAGCGUUCACGCCGCGGCCCCUGUCAGAUUCCGGUGAAUCUGCGAAUUCUGCUGU [U26C U46C] gave a self-cleavage of 0.95.
With GGGGGCCACAGCAGAAGCGUUCACGCCGCGGCCCCUGUCAGAUUCGGGUGAAUCUGCGAAUUCUGCUGU [U26C U46G] the self-cleavage was 0.893.
With GGGGGCCACAGCAGAAGCGUUCACGCCGCGGCCCCUGUCAGAUUCUCGUGAAUCUGCGAAUUCUGCUGU [U26C G47C] the self-cleavage was 0.978.
GGGGGCCACAGCAGAAGCGUUCACGCCGCGGCCCCUGUCAGAUUCUUGUGAAUCUGCGAAUUCUGCUGU [U26C G47U] gave a self-cleavage of 1.01.
Work on GGGGGCCACAGCAGAAGCGUUCACGCCGCGGCCCCUGUCAGAUUCUAGUGAAUCUGCGAAUUCUGCUGU [U26C G47A] yielded a self-cleavage of 0.957.
GGGGGCCACAGCAGAAGCGUUCACGCCGCGGCCGCUGUCAGAUUCUGGUGAAUCUGCGAAUUCUGCUGU [U26C C34G] gave a self-cleavage of 0.492.
In the case of GGGGGCCACAGCAGAAGCGUUCACGCCGCGGCCCCUGUCAGAUUCUGGUGAAUCUGCGAAUUCUCCUGU [U26C G65C], the self-cleavage is reported as 0.547.
